Laboratory results: the supplement of paper PMC9233669
Fewer inactive variants are shown than the library holds.

Key:
[1] = tested on: biotinyl-Phe-oxazolone; assay: self-aminoacylation, catalytic enhancement (BFO) (fold over background); higher = more active; k-Seq, kA / k0A0; sequences stand for … in GGGAAUGGAUCCACAUCUACGAAUUC…UUCACUGCAGACUUGACGAAGCUG
Method in brief: (§1)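 Catalytic enhancement equals the median kA over the uncatalyzed rate, the latter read from the low-activity peak of a bimodal Gaussian fit. Values of kA came from fitting each sequence's fraction reacted to a pseudo-first-order model, with 1000 bootstraps. Reacted RNA was captured with streptavidin and quantified by triplicate qPCR and Illumina sequencing after 90 minutes at room temperature with 2–1250 μM biotinyl-aminoacyl-oxazolone and 0.43 μM mutagenized RNA pools bearing a 21-nt variable region.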

[2] = tested on: biotinyl-Ile-oxazolone; assay: self-aminoacylation, catalytic enhancement (BIO) (fold over background); higher = more active; k-Seq, kA / k0A0; sequences stand for … in GGGAAUGGAUCCACAUCUACGAAUUC…UUCACUGCAGACUUGACGAAGCUG
Method in brief: as §1

[3] = tested on: biotinyl-Met-oxazolone; assay: self-aminoacylation, catalytic enhancement (BMO) (fold over background); higher = more active; k-Seq, kA / k0A0; sequences stand for … in GGGAAUGGAUCCACAUCUACGAAUUC…UUCACUGCAGACUUGACGAAGCUG
Method in brief: as §1

[4] = tested on: biotinyl-Val-oxazolone; assay: self-aminoacylation, catalytic enhancement (BVO) (fold over background); higher = more active; k-Seq, kA / k0A0; sequences stand for … in GGGAAUGGAUCCACAUCUACGAAUUC…UUCACUGCAGACUUGACGAAGCUG
Method in brief: as §1

[5] = tested on: biotinyl-Leu-oxazolone; assay: self-aminoacylation, catalytic enhancement (BLO) (fold over background); higher = more active; k-Seq, kA / k0A0; sequences stand for … in GGGAAUGGAUCCACAUCUACGAAUUC…UUCACUGCAGACUUGACGAAGCUG
Method in brief: as §1

[6] = tested on: biotinyl-Trp-oxazolone; assay: self-aminoacylation, catalytic enhancement (BWO) (fold over background); higher = more active; k-Seq, kA / k0A0; sequences stand for … in GGGAAUGGAUCCACAUCUACGAAUUC…UUCACUGCAGACUUGACGAAGCUG
Method in brief: as §1

Row | Sequence | self-aminoacylation [1] | self-aminoacylation [2] | self-aminoacylation [3] | self-aminoacylation [4] | self-aminoacylation [5] | self-aminoacylation [6]
1 | CUACUUCACACAAUAGGUCUG [Fam1A.1 aminoacylation ribozyme variant] | 1.01 | 0.6 | 0.474 | 0.605 | 0.469 | 0.394
2 | CUACUUCACACAAUCCGUCUG [Fam1A.1 aminoacylation ribozyme variant] | 0.747 | 0.859 | 0.913 | 0.854 | 0.81 | 0.495
3 | CUACUUCACACAAUCGGACUG [Fam1A.1 aminoacylation ribozyme variant] | 0.755 | 0.882 | 0.609 | 0.736 | 0.673 | 0.442
4 | CUACUUCACACAAUCGGUGUG [Fam1A.1 aminoacylation ribozyme variant] | 0.67 | 1.07 | 1.65 | 1.25 | 1.22 | 0.513
5 | CUACUUCACACAUUCGGUCUG [Fam1A.1 aminoacylation ribozyme variant] | 1.72 | 1.16 | 1.13 | 1.1 | 1.36 | 1.69
6 | CUACUUCAGACAACCGGUCUG [Fam1A.1 aminoacylation ribozyme variant] | 0.886 | 0.968 | 1.22 | 1.28 | 1.03 | 0.969
7 | CUACUUCAGACAAUCGGUAUG [Fam1A.1 aminoacylation ribozyme variant] | 0.586 | 0.719 | 0.636 | 0.704 | 0.717 | 0.529
8 | CUACUUCAGACAAUCGGUCAG [Fam1A.1 aminoacylation ribozyme variant] | 1.26 | 0.805 | 0.73 | 0.83 | 0.872 | 0.771
9 | CUACUUCAGACUAUCGGUCUG [Fam1A.1 aminoacylation ribozyme variant] | 0.949 | 0.816 | 0.734 | 0.943 | 0.832 | 0.939
10 | CUACUUCAUACAAUCGGACUG [Fam1A.1 aminoacylation ribozyme variant] | 0.573 | 0.751 | 0.418 | 0.676 | 0.609 | 0.387
11 | CUACUUCAUACAAUCGGUAUG [Fam1A.1 aminoacylation ribozyme variant] | 0.628 | 0.431 | 0.508 | 0.731 | 0.468 | 0.34
12 | CUACUUCAUACAAUCGGUCUA [Fam1A.1 aminoacylation ribozyme variant] | 0.751 | 0.835 | 0.926 | 0.703 | 0.68 | 0.555
13 | CUACUUCAUACAAUCGGUCUG [Fam1A.1 aminoacylation ribozyme variant] | 0.808 | 0.707 | 0.668 | 0.743 | 0.643 | 0.553
14 | CUACUUCAUACGAUCGGUCUG [Fam1A.1 aminoacylation ribozyme variant] | 0.597 | 0.61 | 0.624 | 0.852 | 0.526 | 0.824
15 | CUACUUCCAACAAGCGGUCUG [Fam1A.1 aminoacylation ribozyme variant] | 0.744 | 1.21 | 1.04 | 0.95 | 0.79 | 0.678
16 | CUACUUCCAACAAUCGGUAUG [Fam1A.1 aminoacylation ribozyme variant] | 0.634 | 0.654 | 0.611 | 0.782 | 0.663 | 0.533
17 | CUACUUCCAACAAUCGGUCGG [Fam1A.1 aminoacylation ribozyme variant] | 0.78 | 1.04 | 1.01 | 1.07 | 1.03 | 1.28
18 | CUACUUCCAACAAUCGGUCUA [Fam1A.1 aminoacylation ribozyme variant] | 0.924 | 0.839 | 0.632 | 0.892 | 0.701 | 0.598
19 | CUACUUCCAACAAUCGGUUUG [Fam1A.1 aminoacylation ribozyme variant] | 0.87 | 0.747 | 0.713 | 0.76 | 0.645 | 0.678
20 | CUACUUCCAACAAUCUGUCUG [Fam1A.1 aminoacylation ribozyme variant] | 0.746 | 0.776 | 0.488 | 0.757 | 0.59 | 0.438
21 | CUACUUCCAACUAUCGGUCUG [Fam1A.1 aminoacylation ribozyme variant] | 1.08 | 0.81 | 0.833 | 0.92 | 0.942 | 0.744

Row | Sequence | self-aminoacylation [1] | self-aminoacylation [2] | self-aminoacylation [3] | self-aminoacylation [4] | self-aminoacylation [5] | self-aminoacylation [6]
22 | CUACUUCCAAGAAUCGGUCUG [Fam1A.1 aminoacylation ribozyme variant] | 0.97 | 0.838 | 0.934 | 0.776 | 0.762 | 1.04
23 | CUACUUCGAACAAUCGGUCUC [Fam1A.1 aminoacylation ribozyme variant] | 0.828 | 0.781 | 0.66 | 0.683 | 0.648 | 0.507
24 | CUACUUCGAACAAUCGGUCUG [Fam1A.1 aminoacylation ribozyme variant] | 0.684 | 0.623 | 0.618 | 0.684 | 0.614 | 0.566
25 | CUACUUCGAACAAUCGGUUUG [Fam1A.1 aminoacylation ribozyme variant] | 0.591 | 0.649 | 0.581 | 0.717 | 0.526 | 0.404
26 | CUACUUCGAUCAAUCGGUCUG [Fam1A.1 aminoacylation ribozyme variant] | 0.778 | 0.591 | 0.528 | 0.584 | 0.585 | 0.434
27 | CUACUUCUAACAAUCAGUCUG [Fam1A.1 aminoacylation ribozyme variant] | 0.82 | 0.663 | 0.524 | 0.689 | 0.603 | 0.502
28 | CUACUUCUAACUAUCGGUCUG [Fam1A.1 aminoacylation ribozyme variant] | 0.796 | 0.734 | 0.766 | 0.841 | 0.628 | 0.65
29 | CUACUUCUUACAAUCGGUCUG [Fam1A.1 aminoacylation ribozyme variant] | 0.695 | 0.767 | 0.812 | 0.707 | 0.624 | 0.524
30 | CUACUUGAAAAAAUCGGUCUG [Fam1A.1 aminoacylation ribozyme variant] | 0.472 | 0.862 | 0.781 | 0.822 | 0.801 | 0.84
31 | CUACUUGAAACAAUAGGUCUG [Fam1A.1 aminoacylation ribozyme variant] | 0.837 | 1.06 | 1.09 | 1.05 | 1.13 | 0.841
32 | CUACUUGAAACAAUCGGUAUG [Fam1A.1 aminoacylation ribozyme variant] | 0.5 | 0.654 | 0.67 | 0.699 | 0.838 | 0.504
33 | CUACUUGAAACAAUCGGUCGG [Fam1A.1 aminoacylation ribozyme variant] | 0.733 | 0.997 | 0.994 | 0.949 | 1.13 | 0.589
34 | CUACUUGAAAUAAUCGGUCUG [Fam1A.1 aminoacylation ribozyme variant] | 0.723 | 0.785 | 0.801 | 0.784 | 0.68 | 0.619
35 | CUACUUGAACCAAUCGGUCUG [Fam1A.1 aminoacylation ribozyme variant] | 0.74 | 0.821 | 0.841 | 0.879 | 0.941 | 0.582
36 | CUACUUUAAACAAUCGAUCUG [Fam1A.1 aminoacylation ribozyme variant] | 0.815 | 0.768 | 0.675 | 0.741 | 0.683 | 0.852
37 | CUACUUUAAACAAUCGGUCAG [Fam1A.1 aminoacylation ribozyme variant] | 0.862 | 0.617 | 0.716 | 0.655 | 0.588 | 0.417
38 | CUAGACUUCAAGCAAUCGGUC [Fam1B.1 aminoacylation ribozyme variant] | 34.1 | 0.981 | 1.05 | 0.979 | 1.37 | 16.2
39 | CUAGAUCAAACAAUCGGUCUG [Fam1A.1 aminoacylation ribozyme variant] | 2.24 | 0.703 | 0.578 | 0.798 | 0.708 | 1.22
40 | CUAGUUCAAACAAUAGGUCUG [Fam1A.1 aminoacylation ribozyme variant] | 0.923 | 1.04 | 0.949 | 0.952 | 1.09 | 0.721
41 | CUAGUUCAAACAAUCGGGCUG [Fam1A.1 aminoacylation ribozyme variant] | 2.64 | 1.54 | 1.4 | 1.42 | 1.79 | 2.72
42 | CUAGUUCAAACAAUCGGUCUA [Fam1A.1 aminoacylation ribozyme variant] | 2.81 | 0.813 | 0.777 | 0.759 | 0.647 | 1.43
